Measured values as given in patent US10487318.

B1: Homologue 15 (NCBI YP_002754884) (protein)
chain: MSPIASRRSALPLSERPAPENARALAAVEPDRTMTVSVLVRRKKPLVLADLEGKKLTHREFERRYGASEKDFATIAKFAAGHGLAVDHHASSLARRTVVLRGTARQMQQAFGVTLHDYEDSETQQRYHSFTGAITVPAAHARIIESVLGLDARPIAKPHFRVRKRSAAATGAVSFNPPQVASLYSFPTGVDGSGETIGILELGGGYETSDIQQYFSGLGIQPPTVVAVSVDGAVNAPGNPNGADGEVALDIQVAGSIAPGAKLAVYFAPNTEQGFVDAITTAVHDTANKPSVLSISWGGPESSWPQAAAQSLNNACESAAALGVTITVASGDNGSTDGVQDGQNHVDFPASSPYVLACGGTYLAAVNNGVPQESVWDDLASGGGATGGGVSALFPLPAWQTGANVPGGSMRGVPDVAGDASPESGYNVLVDGQPQVVGGTSAVAPLWAALIALVNQQKGEAAGFVNAALYQNPSAFHDITQGSNGAYAAAPGWDPCTGLGSPMGTAIAKILA
B2: Homologue 19 (NCBI YP_005056054) (protein)
chain: MPTSSRFASQSRVPLPGSERKPFVPAGAPKAAKTPKVSTAVKTVPATGRIRVSLIVPPKQPLDTKRLGKLDARLSRAQFAARHGADPASVRLVKAFAKEFGLTVEPITQPGRCTVQLSGTCAAMRKAFAISLVEHTTEQGKFRLREGEISLPAELEGHVLAVLGLDNRPQAKPHFRIAKPRATNVSYTPVQVAQMYGFPAGATATGQTIGIIELGGGYRAADLTAYFKTLGLPAPTVTAVPIDGGKNTPGNANGADGEVMLDIEVCAAVAQGAKIAVYFTTNTDQGFIDAITTAVHDSTNKPSVISISWGGPESSWTEQSMTALDAACQAAAAVGVTITVAAGDNGSSDGASGDNVDFPASSPHVLACGGTKLVGSGSTITSEVVWDETSNDEGATGGGVSTVFALPTWQKNANVPSPTTSAGGRGVPDVSGDADPSTGYTIRVDSETTVIGGTSAVAPLWAGLIALANAQNKVAAGFVNPALYAAGAKKAFRDITQGNNGSFSAGPGWDACTGLGSPVGNLVIQAVAPKSTTTKKAKKGKTK
B3: Homologue 17 (NCBI YP_004216463) (protein)
chain: MAATPRFASQPRVTLPGSQKHPLTTDTEVPPPAPVKAAATKLSATPFTVTVIVKRKNPLNLKQVLKPAGRLTHAAFAKAHGPSPDGVKLVKAFAKEFGLTVAPAPGQGRRALYLTGTAAAMQTAFGVTFATKIMEGTKYRVREGDICLPKELIGHVDAVLGLDNRPQAKPHFRHHKPAATSVSYTPVQVGQLYGFPSGAKATGQTIGLIELGGGFRAADITAYFKTLGQTAPKVTAVLVDKAKNTPTTSSSADGEVMLDIEVAAAVAPGANIAVYFAPNTDQGFIDAISQAVHDTVNKPSVISISWGGPESTWTAQSLAALDAACQSAAALGITITVAAGDDGSTDGVKGTVNHVDFPASSPHVLGCGGTKLLGSGTTITSEVVWNELTANEGATGGGVSNVFPLPTWQAKSNVPKPTVAAGGRGVPDVSGNADPSTGYTVRVDGSTFPIGGTSAVAPLWAGLIALCNAQNKTTAGFINPALYAAAAAKSFRDITSGNNGGFKAGPGWDACTGLGSPIGTAIAKTLAPATKSTSKTAVKNAPEIRFRPHKKAPTKTAAKTPALRRLK
B4: Homologue 1 (NCBI YP_005536585) (protein)
chain: MAPSDVEIVDPVAPEERITVTVLLRRRSSIPDQLIEGPDTLSRAELADRHGADPADVEAVRVAMSGAGLTVVGTDLPSRRVTVAGTAEALMRTFGAELQIVRDASGFQHRARSGELRIPAALDGIVIAVLGLDNRPQAEARFRASQPEAARSFRPDALGRVYRFPANTDGTGQTIAIVELGGGFRQSELDTYFGGLGIPAPQVLAVGVDGGQNLPSGDAGSADGEVLLDIEVAGALAPGARQVVYFAPNTDRGFVDAVTTAVHADPTPAAVSISWGAPEDKWTAQARRAFDAALADAAALGVTVTAAAGDRGSADGEGGGGLHTDFPASSPHLLACGGTKLAVADGGTVASETVWNGGERGGATGGGVSVAFGLPAYQRNAGVDKRRKTGKPGRGVPDVAAVADPATGYEVLVDGEQLVFGGTSAVAPLWAALVARLTQALGRPLGLLNTALYDGAQPGRTQPGFRDVTEGDNDISGKHGPYPARAGWDACTGLGVPDGEALLAALRKPGKE
B5: Homologue 4 (NCBI ZP_10028298) (protein)
chain: MANHPLNGSERECLKDAQPIGKADPNERLEVTMLVRRRSHDAFEKHISALAAQGASAKHIDHDEFTKHFGADSADLAAVHAFAQKHGLSVVESHEARRAVVLSGTVAQFDAAFGVSLQQYEHDGGTYRGRTGPIHLPDELNGVVDAVMGLDNRPQARPSFRTRAQGNVRWTARAAGASTFTPVQLASLYDFPQGDGQNQCIGIIELGGGYRPADLKTYFASLNMKAPSVTAVSVDHGRNHPTGDPNGPDGEVMLDIEVAGAVAPGAKIVVYFAPNTDAGFIDAIGTAIHDTKNKPSVISISWGGPESAWTQQAMNAFDQAFQSAAALGVTICAASGDNGSGDGVGDGADHVDFPASSPYALGCGGTSLQASGNGIASETVWNDGANGGATGGGVSSFFALPAWQEGLRVTRAGGAHSPLAMRGVPDVAGNADPVTGYEVRVDGHDMVIGGTSAVAPLWAGLIARINAIKGAPVGYINPHLYKDPLALVDITKGNNDDFHATAGWDACTGLGRPDGKKVKDAVS
B6: Homologue 16 (NCBI YP_003387700) (protein)
chain: MSAFDQLVPLPGSEKTVPDAAPSQTLDPNEVLTVTIRIRRKRTLASLVSTTAPVTEVVSRSEYASRFGADPAIVKQVEAFASAYDLSLVEQSLARRSVLLRGTVAQMEQAFGVSLANYQLADGTVFRGRTGVVNVPSELVEHIEGVFGLDNRPQARAHFQVYKPEKGTKVAPRAGGISYTPPQLARLYNFPTGVTGKGQCIAIIELGGGFRTADIKTYFGGLGLKPPTVVAVSVDGGHNAPSTADSADGEVMLDIDVAGGVAPGAKIVVYFAPNTDQGFLDAITTAMHDTKNKPSVISISWGAAESNWTPQALTSFNQAFQAAAALGITVCAAAGDTGSDDSVGDGKAHVDFPASSPFVLACGGTKLTATDNVIASEVVWHESKTSATGGGVSDVFDLPDYQQKSHVPPSVNDKTRIGRGVPDVAAVADPVTGYAVRVDGSNLVFGGTSAVAPLMAGLIALINQQRGKAVGFIHPLIYANPSAFRDITQGNNTTTTGNKGYAATTGWDACTGLGVADGKKLASVLTATPVA
B7: Homologue 5 (NCBI ZP_09078202) (protein)
chain: AGRTSYTPLEVAALYNFPSIHCKDQCIGILELGGGYRPADLQTYFNGLGIPQPNITDVSVGGAANRPTGDPNGPDGEVVLDIEVAAAVTPGAKIAVYFADNSDDGFLNAITTAIHDTRNKPSVISISWGKAEIGWTPQAINAMNQAFRDAAALGVTICCASGDDGSTDRVQDGRYHVDFPASSPYVLACGGTRLESSGSTITQEVVWNEGALGGGATGGGVSDVFDRPNWQANANVPTSANPERRIGRGVPDWAGNADPATGYQILVDGTRAVIGGTSAVAPLFAGLIAIINQKLGHSVGFINPILYNLSAQHNVFHDITSGNNDMSGQNGPYEAQPGWDACTGLGSPDGTKLMNAISEAHRLVSVG
B8: Homologue 6 (NCBI YP_003109679) (protein)
chain: MAPEERRTLPGSAMPRPAGAQVLGQIPDDERVEVTVVLQPRAPLPEPGPTPMSRAELADLRSPPEGALEAIARYVAGQGLEVIAADAPRRRIVLAGSAARIAALFGISFVRLQLEGRRYRTYEGEISLPAELAPLVVAVLGLDTRPFARSHRRPAVAPNAPTTAPTVARAYDFPTAYDGRGTTIGFIELGGGFQESDLVRYCEGLGLSTPQVSVVGVDGARNAPTGDPNGPDAEVMLDLEVATGVANGADLVLYMAANTDAAFYSAIATALRDATHAPVAISISWGAPEESYPATTIAAFESVLEEAVHVGVTVLVAAGDQGSTDGVDDGRAHVDYPAASPYVLACGGTRLDLDGTTIVAETVWNDLPNGGATGGGISALFPVPSWQAGIAMPPSANPGAGPGRGVPDVAGNADPDTGYRIVVDGVATVVGGTSAVAPLWAGLVARCHQAGARGGFWNPLLYAARGSSAFHEITVGSNGAYDAGPIWNACCGLGSPNGTAILQTLRA
B9: Homologue 2 (NCBI ZP_04943175) (protein)
chain: MQRGTKEGLNMARHLQADREPRIVPESKCLGQCDPAERIHVTIMLRRQEEGQLDALVHQLATGDARAKPVSRDAFAQRFSANPDDIRKTEDFAHRHQLTVDRVDPVESVVVLSGTIAQFEAAFSVKLERFEHRSIGQYRGRSGPIVLPDDIGDAVTAVLGLDSRPQARPHFRFRPPFKPARGAAAVTFTPIQLASLYDFPAGDGAGQCIAIIELGGGYRAADIQQYFRGLGITTPPKLVDVNVGTGRNAPTGEPNGPDGEVALDIEIAGAIAPAAKIAVYFAPNSDAGFIQAVNAAVTDKTNQPSVISISWGGPEAIWQAQSAQAFNRVLQAAAAQGITVCAASGDSGSGDGLQDGADHVDFPASSPYVLGCGGTQLDALPGQGIRSEVTWNDEASGGGAGGGGVSALFDLPAWQQGLKVARADGTTTPLAKRGVPDVAGDASPQTGYEVSVAGTPAVMGGTSAVAPLWAALIARINAANGASAGWINPVLYKHPGALRDITKGSNGTYAAASGWDACTGLGSPNGAQLATILARKPSS

Tests used:
[1] = target: T1, 33mer peptide (LQLQPFPQPQLPYPQPQLPYPQPQLPYPQPQPF)
T1 chain: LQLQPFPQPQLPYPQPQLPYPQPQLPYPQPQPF

[2] = target: T2, Glia_56-79 peptide (LQLQPFPQPQLPYPQPQLPY)
T2 chain: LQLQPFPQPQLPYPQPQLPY

[3] = target: T3, γ-gliadin peptide (IQPQQPAQL)
T3 chain: IQPQQPAQL

[4] = target: T4, fluorescent analogue of gliadin, hexapeptide QPQLPY conjugated to a fluorophore and a quencher
T4 chain: QPQLPY

[5] = target: T5, α9-gliadin peptide (QLQPFPQPQLPY)
T5 chain: QLQPFPQPQLPY

[6] = target: T6, α2-gliadin peptide (PQPQLPYSQPQPFR)
T6 chain: PQPQLPYSQPQPFR

Protein | Degradation pattern of 33mer (60 min) [1] | grade and % of peptide after an 80-min incubation [2] | grade and % of peptide after an 80-min incubation [3] | rate of degradation of the fluorescent hexapeptide, pH 4.0, 37° C. [4] | grade and % of peptide after an 80-min incubation [5] | grade and % of peptide after an 80-min incubation [6] | activity on peptide (percent) [1] | rate of degradation of the fluorescent hexapeptide, pH 4 [4]
B1 | WT-like |  |  |  |  |  |  | 
B2 | WT-like - minor |  |  |  |  |  |  | 
B3 | WT-like - minor |  |  |  |  |  |  | 
B4 |  | ++; 1.6% | ++/-; 29% | had activity comparable to or better than Kumamolisin under these conditions | -; 80% | ++ (undetect) | 46% | 
B5 | WT-like | ++; 0.6% | +; 12% | had activity comparable to or better than Kumamolisin under these conditions | ++/-; 25%; | ++ (undetect) | 38% | 
B6 | WT-like |  |  |  |  |  |  | 
B7 |  | ++; 0.4% | ++/-; 40% |  | ++/-; 34%; | ++ (undetect) |  | 
B8 |  | -; 85% | -; 102% |  | -; 114% | -; 87% |  | no activity was seen for this homologue in the fluorescent experiment conducted at pH 4
B9 |  | ++; 0.2% | +/-; 65% | had activity comparable to or better than Kumamolisin under these conditions | ++/-; 37%; | ++ (undetect) | 31% | 
